Experimental data: article PMC12440814
Numbering of substitutions follows the chain as printed.

Experiments:
CtTrl1-LIG WT [1] = target: T1, CtTrl1-LIG WT (Chaetomium thermophilum, UniProt G0S6G2 1-414); test: X-ray crystallography
T1 sequence: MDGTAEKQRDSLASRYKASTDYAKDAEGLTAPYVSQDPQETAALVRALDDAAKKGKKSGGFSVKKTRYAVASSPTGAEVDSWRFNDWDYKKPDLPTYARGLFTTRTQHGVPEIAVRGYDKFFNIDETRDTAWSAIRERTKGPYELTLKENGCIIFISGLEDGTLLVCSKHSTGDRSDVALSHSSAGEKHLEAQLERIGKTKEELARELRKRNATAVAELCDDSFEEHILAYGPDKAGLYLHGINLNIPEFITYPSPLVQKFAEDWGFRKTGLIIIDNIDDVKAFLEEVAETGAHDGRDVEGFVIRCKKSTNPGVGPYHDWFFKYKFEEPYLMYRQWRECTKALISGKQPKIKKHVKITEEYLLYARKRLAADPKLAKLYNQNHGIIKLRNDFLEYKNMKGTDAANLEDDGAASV

CtTrl1-LIG WT [2] = target: T1, CtTrl1-LIG WT; test: EMSA
CtTrl1-LIG S171A = target: T2, CtTrl1-LIG S171A (Chaetomium thermophilum, UniProt G0S6G2 1-414, S171A); test: EMSA
T2 sequence: T1 sequence with S171A

CtTrl1-LIG H170A = target: T3, CtTrl1-LIG H170A (Chaetomium thermophilum, UniProt G0S6G2 1-414, H170A); test: EMSA
T3 sequence: T1 sequence with H170A

CtTrl1-LIG K148N = target: T4, CtTrl1-LIG K148N (Chaetomium thermophilum, UniProt G0S6G2 1-414, K148N); test: EMSA
T4 sequence: T1 sequence with K148N

CtTrl1-LIG WT [3] = target: T1, CtTrl1-LIG WT; test: EMSA; remark: listed apart in the source

B1: 3'exon-7nt (dsRNA)
RNA 1: AUCUGGA
RNA 2: AUCUGGA
modifications: 5'-phosphate; one strand end 5'-adenylylated (AppRNA) in the crystal
binding result (CtTrl1-LIG WT [1]): binds

B2: ASL-4U (structured_RNA)
RNA: AUCUGGAUUUUGCCAGACUGAAG
modifications: 5'-phosphate; terminal phosphate at 3' end nucleotide (2'-P/3'-OH)
binding result (CtTrl1-LIG WT [2]): binds | binding result (CtTrl1-LIG S171A): binds | binding result (CtTrl1-LIG H170A): binds | binding result (CtTrl1-LIG K148N): binds

B3: ASL-4U-5C (structured_RNA)
RNA: CUCUGGAUUUUGCCAGACUGAAG
modifications: 5'-phosphate and terminal phosphate presumed as in ASL-4U
binding result (CtTrl1-LIG WT [3]): binds
